According to article PMC2649695 (Circulation research, 2009):

Target: T1, GST-MBS 683-866 (UniProt O14974 683-866)
T1 sequence (looked up): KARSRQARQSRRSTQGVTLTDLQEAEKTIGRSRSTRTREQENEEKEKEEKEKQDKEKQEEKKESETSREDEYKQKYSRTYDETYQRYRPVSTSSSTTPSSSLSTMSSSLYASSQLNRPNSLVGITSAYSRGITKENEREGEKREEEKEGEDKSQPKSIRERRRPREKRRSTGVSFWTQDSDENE
Assay: pull-down

B1: Myc-tagged ROCK2 (natural protein, UniProt O75116 1-1388, looked up)
chain: MSRPPPTGKMPGAPETAPGDGAGASRQRKLEALIRDPRSPINVESLLDGLNSLVLDLDFPALRKNKNIDNFLNRYEKIVKKIRGLQMKAEDYDVVKVIGRGAFGEVQLVRHKASQKVYAMKLLSKFEMIKRSDSAFFWEERDIMAFANSPWVVQLFYAFQDDRYLYMVMEYMPGGDLVNLMSNYDVPEKWAKFYTAEVVLALDAIHSMGLIHRDVKPDNMLLDKHGHLKLADFGTCMKMDETGMVHCDTAVGTPDYISPEVLKSQGGDGFYGRECDWWSVGVFLYEMLVGDTPFYADSLVGTYSKIMDHKNSLCFPEDAEISKHAKNLICAFLTDREVRLGRNGVEEIRQHPFFKNDQWHWDNIRETAAPVVPELSSDIDSSNFDDIEDDKGDVETFPIPKAFVGNQLPFIGFTYYRENLLLSDSPSCRETDSIQSRKNEESQEIQKKLYTLEEHLSNEMQAKEELEQKCKSVNTRLEKTAKELEEEITLRKSVESALRQLEREKALLQHKNAEYQRKADHEADKKRNLENDVNSLKDQLEDLKKRNQNSQISTEKVNQLQRQLDETNALLRTESDTAARLRKTQAESSKQIQQLESNNRDLQDKNCLLETAKLKLEKEFINLQSALESERRDRTHGSEIINDLQGRICGLEEDLKNGKILLAKVELEKRQLQERFTDLEKEKSNMEIDMTYQLKVIQQSLEQEEAEHKATKARLADKNKIYESIEEAKSEAMKEMEKKLLEERTLKQKVENLLLEAEKRCSLLDCDLKQSQQKINELLKQKDVLNEDVRNLTLKIEQETQKRCLTQNDLKMQTQQVNTLKMSEKQLKQENNHLMEMKMNLEKQNAELRKERQDADGQMKELQDQLEAEQYFSTLYKTQVRELKEECEEKTKLGKELQQKKQELQDERDSLAAQLEITLTKADSEQLARSIAEEQYSDLEKEKIMKELEIKEMMARHKQELTEKDATIASLEETNRTLTSDVANLANEKEELNNKLKDVQEQLSRLKDEEISAAAIKAQFEKQLLTERTLKTQAVNKLAEIMNRKEPVKRGNDTDVRRKEKENRKLHMELKSEREKLTQQMIKYQKELNEMQAQIAEESQIRIELQMTLDSKDSDIEQLRSQLQALHIGLDSSSIGSGPGDAEADDGFPESRLEGWLSLPVRNNTKKFGWVKKYVIVSSKKILFYDSEQDKEQSNPYMVLDIDKLFHVRPVTQTDVYRADAKEIPRIFQILYANEGESKKEQEFPVEPVGEKSNYICHKGHEFIPTLYHFPTNCEACMKPLWHMFKPPPALECRRCHIKCHKDHMDKKEEIIAPCKVYYDISTAKNLLLLANSTEEQQKWVSRLVKKIPKKPPAPDPFARSSPRTSMKIQQNQSIRRPSRQLAPNKPS
fold bound relative to mycROCK1: 2 fold
